# Biological target: human CD3 on Jurkat cells (Homo sapiens (endogenous, Jurkat), UniProt P07766;P04234)
# Experiment: flow cytometry on cells
# Sequence of human CD3 on Jurkat cells (P04234 whole entry, looked up, chain 1 of 2): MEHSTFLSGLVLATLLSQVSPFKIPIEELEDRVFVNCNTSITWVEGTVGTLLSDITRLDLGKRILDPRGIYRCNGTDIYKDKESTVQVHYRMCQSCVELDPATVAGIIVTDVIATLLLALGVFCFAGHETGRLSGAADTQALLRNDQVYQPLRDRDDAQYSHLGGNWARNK
# Sequence of human CD3 on Jurkat cells (P07766 23-207, looked up, chain 2 of 2): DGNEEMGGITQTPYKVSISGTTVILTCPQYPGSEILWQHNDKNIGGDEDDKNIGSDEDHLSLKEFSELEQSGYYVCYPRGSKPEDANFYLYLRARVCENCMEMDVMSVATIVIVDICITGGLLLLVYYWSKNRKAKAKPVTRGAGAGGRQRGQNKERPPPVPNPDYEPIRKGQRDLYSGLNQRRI
binder,measurement,value
R11 scFv-Fc (homodimeric monospecific anti-ROR1 scFv-Fc) (Fc fusion) VH: QSVKESEGDLVTPAGNLTLTCTASGSDINDYPISWVRQAPGKGLEWIGFINSGGSTWYASWVKGRFTISRTSTTVDLKMTSLTTDDTATYFCARGYSTYYGDFNIWGPGTLVTISS VL: ELVMTQTPSSTSGAVGGTVTINCQASQSIDSNLAWFQQKPGQPPTLLIYRASNLASGVPSRFSGSRSGTEYTLTISGVQREDAATYYCLGGVGNVSYRTSFGGGTEVVVK,binding result,no binding (tested: 5 μg/mL)
